# Experiment: yeast display, Sf9 membrane polyspecificity reagent, FACS + sequencing; frameworks hold sequencing errors
# How it was run: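 Nanobodies came from a synthetic yeast display library in Saccharomyces cerevisiae BJ5465, induced with galactose for 36–48 hours and stained for 1 hour at 4 °C with 10% biotinylated, detergent-solubilized Sf9 membrane reagent. Cells were enriched on streptavidin microbeads and then FACS-sorted, with low and high (top ~1%) gates set on anti-HA fluorescence for expression and streptavidin fluorescence for reagent binding. Each polyreactivity label reflects the gate a clone came from. Genes were amplified by colony PCR, sequenced by MiSeq 2 × 250 and filtered by CDR length.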
sequence,measurement,value
QVHLVESGGGLVQAGGSLRLSCAASGSTFTYYAMGWYRQAPGKERELVAAISRRGGSTYYADSVKGRFTISRDNAKNTVYLQMNSLKPEDTAVYYCNVVIYSYGCNGRYDFWGQGTQVTVSS,polyreactivity (PSR sort gate),high polyreactivity
QDQLVESGGGLDQAGGRLRLSCAASGFTFGRNAMGWYRPAPGKERELDAASSWSGGSTYYADSVKGRFTISRDYAKNTVYVQMNSLKPEDTAVYYCNKRSRLGRGNRDYWGQGTQVTVSS,polyreactivity (PSR sort gate),high polyreactivity
QVQLVESGGGLVQAGGSLRLSCAASGRTFPVNAMGGYRQAPGKERELVAVINWGGTSTYYADSVKGRFTISRDNAKNTVYLQMNSLKPEDTAVYYCAARARYPGVGYNYWGQGTQVTVSS,polyreactivity (PSR sort gate),high polyreactivity
QVQLVESGGGLVQAGGSLRLSCAASGSIFDVYAMGWYRQAPGKERELVATMSNSAGSTYYADSVKGRFTISRDNAKYTVYLQMNSLKPEDTAVYYCAAVVVYFDEYDYWGQGTQVTVSS,polyreactivity (PSR sort gate),low polyreactivity
QVQLVESGGGLVQAGGSLRLSCAASGFIFPEYAMGWYRQAPGKERELVAAINWSGGNTYYADSVKGRFTISRDNAKNTVYLQMNSLKPEDTAVYYCNVDEWVTDDDYWGQGTEVTVSS,polyreactivity (PSR sort gate),low polyreactivity
QVQLVESGGGLVQAGGSLRLSCAASGFIFITVNAMGWYRQAPGKEREFVAAITRSGTGTYYADSVKGRFTISRDYAKYTVFLQMNSLKPEDTAVSYCAADATSTGAYDYWGQGTQVTVSS,polyreactivity (PSR sort gate),low polyreactivity
QVQLVESGGGLVQAGGSLRLSCAASGRIFGVNAMGGDRQAPGKERELVAVISSGGSTYYADSVKGRFTISRDNAKNTVYLQMNSLKPEDTAVYYCAAGYLPDYDYWGQGTQVTVSS,polyreactivity (PSR sort gate),low polyreactivity
QVQLVESGGGLVQAVGSLRLSCAASGRTFSEYAMGWYRQAPGKERELVAAITGTGGSTYYADSVKGRFTISRDNAKNTVYLQMNSLKPEDTAVYFCAAEYYRYYFLSVSTDDYWGQGTQVTVSS,polyreactivity (PSR sort gate),high polyreactivity
QVQLVESGGGLVQAGGSLRLSCAASGSIFYGNAMGWDRQAPGNARELVAAISWNGGSTYYADSVKGRFTISRDNAKNTVYLQMNSLKPEDTAVYYSNADYYYEVDSWGQGTQVTVSS,polyreactivity (PSR sort gate),low polyreactivity
QVQHVESVVGLVQAGGSLRLSCAASGSTFGPNAMGWSRQAPGKERELVAAITSGGRTYYADSVKGRFTISRDNAKNTVYLQMNSLKPEDTAVYYCAARVSVGVPRYEYWGQGTQVTVSS,polyreactivity (PSR sort gate),high polyreactivity
QVQLVESGGGLVQAGGSLRLSCAASGGIFYLYAMGWYRQAPGKERELVAAITWSADSTYYADSVKGRFTISRDNAKYTVYLQMNSLKPEDTAVYYCNADVAWQYWNGWSWDIYDYWGQGTQVTVSS,polyreactivity (PSR sort gate),low polyreactivity
QVQLVESGGGLVQAGGILRLSCAASGSIFYWSTMGWYIQAPGKERELVAAISSIDGNTYYADSVKGRFTISRDNAKNTVYLQMNSLKPEDTAVYYCAAAYYNTDYYYWGQGTQVTVSS,polyreactivity (PSR sort gate),low polyreactivity
QVQLVESGGGLVQAGGSLRLSCAASGLTFGWNAMGWYRQAPGKERESVAAISYNGVSTHYADSVKGRFTISRDNAKNTVYLQMNSLKPEDTAVYYCAARALTWPYGGTAPRLYNYWGQGTQVTVSS,polyreactivity (PSR sort gate),low polyreactivity
QVQLVESGGGLVQAGGSLRLSCAASGFTFYYYVMGWSRQAPGKERELVAAITRSGGSTYYADSVKGRFTISRDNAKNTVYLQMNSLKPEDTAVYYCNAYVPPKAASAAYDYWGQGTQVTVSS,polyreactivity (PSR sort gate),high polyreactivity
QVQLVESGGGLVQAGASLRLSCAASGITFTPYAMGWYRQAPGKERELVAAISWRGGSTYYADSVKGRFTISRDNAKNTVYLQMNSLKPEDTAVYYCAKDGRGYGRYSRYYTGDYWGQGTQVTVSS,polyreactivity (PSR sort gate),low polyreactivity
QVQLVESGGGLDQAGGSLRLSCAASGFIFQRYTLGWYRQAPGKERELVAAITSGGRTYYADSVKGRFTISRDNAKNTVYLQMNSLKPEDTAVYYCNARGRASRHSGYDYWGQGTQVTVSS,polyreactivity (PSR sort gate),high polyreactivity
QVQLVESGGGLVQAGGSLRLSCAASGLTFSRNAMGWYRQAPGKEWELVAAISGSGGSTYYADSVKGRFTISRDNAKYTVYLQMNSLKPEDTAVYYCAKVSRSKQKFDYWGQGTQVTVSS,polyreactivity (PSR sort gate),high polyreactivity
QVQLVESGGGLVQAGGSLRLTFAASGRTFGYYAMGWSRQAPGKEREWVAAISWSGTSTYYADSVKGRFTISRDNAKNTVYLQLNSLKPEDTAVYYCNAVNVAVQWTSRYYYWGHGTQVTVSS,polyreactivity (PSR sort gate),high polyreactivity
QVQLVESGGGLVQAGGSLRLRCAASGSTFTYNTMGWYRQAPGKERELVAAINTTGNTYADSVKGRFTISRDNAKNTVYLQMNSLKPEDTAVYYCNTDYVPRRHDMDYWGQGTQVTLSS,polyreactivity (PSR sort gate),low polyreactivity
QVQLVESGGGIVQAGGSLRLSCAASGRIFLTNAKGWYRQAPGKERELVATITASGGTTYYADSVKGRFTISRDNAKNTVYLQMNSLKTEDTAVYYCAKRYYLRGYGRYYYWGQGTQVTVSS,polyreactivity (PSR sort gate),high polyreactivity
QVQLVESGGGLVQAGGSLRLSCAASGSTFGRYAMGWYRQAPGKERELVATIDGSDGSTFYADSVKGRFTISRDNAKNTVYLQMNSLKPEDTAVYYCAAAWYDGYYYLVYYWGQGTQVTVSS,polyreactivity (PSR sort gate),low polyreactivity
QVQLVESGGGLVQAGGSLRLSCAASGSIFRSYAMGWYRQAPGKERELVAAISRRGGSTYYADSVKGRFTISRDNAKNTVYLQMNSLKPADTGVYYCAAVRYNSRVSTTPSDMYYWGQGTQVTVSS,polyreactivity (PSR sort gate),low polyreactivity
QVQLVESGGGLVQAGGSLRLSCAASGSTFIPYAMGWYRQAPGKERELVAAIRGGDGSTYYADSVKGRFTISRDNAKNTVYLQMNSLKPEDTAVYYFAADTVITAYFDRFWRYNYWGQGTQVTVSS,polyreactivity (PSR sort gate),low polyreactivity
QVQLVDSGGGLVQAGGSLRLSCAASGITFTRYAMGWYRQAPGKERELVAAISSGGRTNYADSVKGRFTISRDNAKNTVYLQMNSLKREDTAVYYCNALYRARWGLGTQVTVSS,polyreactivity (PSR sort gate),high polyreactivity
QVQLVESGGGLVQAGGSLRLSCAASGRTFYYYAMGWYRQAPGKEREFVAAISWSGVRTSYADSVKGRFTISRDNAKNTVNLQMNSLKPEDTAVYYCATKPNPQSRPRYDHWGQGTQVTVSS,polyreactivity (PSR sort gate),high polyreactivity
QVQLVESGGGLVQAGGSLRLSCAASGFTFVRYAMGWYRQAPGKERELVAAISRRGGSTYYADSVKGRFTISRDNAKNTVYLQMNSLKPEDTAVYYCNALPRPSYPFDYWGQGTQVTVSS,polyreactivity (PSR sort gate),high polyreactivity
QVQLVESGGGLVQAGGSLRLSCAASGSTFTGYTMGWYRQAPGKERELVAAITYRGGSTYYADSVKGRFTISRDNAKNTVYLQMNSLKPEDSAVYYCAAVAVYYEYSPYDYWGQGTQLTVSS,polyreactivity (PSR sort gate),low polyreactivity
QVQLVESGGGLVQAGGSHRLSCAASGYTFARYAMGWYRQAPGKERELVAAISRSGGGTYYADSVKGRFTISRDNAKNTVYLQMNSLKPEDTAVYYCATDRVQGLGRFDYWGQGTQVTVSS,polyreactivity (PSR sort gate),high polyreactivity
QVQLVESGGGLVQAGGSLRLSCAASGSTFYYYAMGWYRQAPGKERELFATINKNVGITYYADSVKGRFTISRDNAKNTVYLQRNSMKTEVTAVDYCAAHGRINPDGPRTVFFASEEDYWGQGTQVTVSS,polyreactivity (PSR sort gate),low polyreactivity
QVQLVESGGGLVQAGGSLRLSCAASGRIFYGYVMGLYRQAPGKERELVAAISLSGGRTYYADSVKGRFTISRDNAKNTVYLQMNSLKPEDTAVYYCAAEGIKGISYGHDYWGQGTQVTVSS,polyreactivity (PSR sort gate),low polyreactivity
QVQLVESGVGLVQAGGSLRLSCAASGSTFKFYSMGWYRQAPGTERELVASITSSSGPTYFADSVKGRFTNSLDNAKNTVYLQMNSLKQEDTAVYYCAKRPIRYYHLLRGNYWGHGTQVTVSS,polyreactivity (PSR sort gate),low polyreactivity
QVQLVESGGGLVQAGGSLRLRSAASGYTFSIYAMGRYRQATGKERELVASISWSAGNTYYADYVKGRFTFSLDNAKNTVYLQMNSLKPEDTAVYYCAVPRRLIWYRPSSYDYWGQGTQVTVSS,polyreactivity (PSR sort gate),low polyreactivity
QVQLVESGGGLVQAGGSLRLSCSASGSIFLYYTMGWYRQEPGKERELVAAITWSGASTYYADSVKGRFTISRDNGKITVYLQMNSLKPEDTAVYYCATRYRYRYCGQGTQVTVSS,polyreactivity (PSR sort gate),high polyreactivity
QVQLVESGVGLVQAGGSLRLSCAASGSIFYRNAMVWYRQAHGKERELVAAISGTGGSTYYADSLKGRFTISRDNAKNTVYLQMNSLKPEDTAVYYCASGVTYRHDYWGQGTQVTVSS,polyreactivity (PSR sort gate),high polyreactivity
QVQLVESGGGLVQAGGSLRLSCAASGAILDEYSMVWYRPAPGKAREFVAGIRTIGGSTYYADSVKGRFTISRENAKNTVYLQLNSLIPEDTADNYCAADGRTHEPQGWLGGYDYCGQGTQVTVSS,polyreactivity (PSR sort gate),low polyreactivity
QVQLVESGGRLFQAGGSLRLSCAASGRNFCRYVMGWYRQAPGKERELVATISSGGSTNYADSVKGRFTISRDNAKNTVYLQMNSMKTEVTAVYYSAAYIYDGFWVYPYYPYDYWGQGTQVTVSS,polyreactivity (PSR sort gate),low polyreactivity
QVQLVESGGGLVQAGGSLRLSCAASGRTFLLYAMGWYRQAPGKERELVAAITWGGGSTYYADSVKGRFTISRDNAKNTVYLQMNSLKPEDTAVYYCAADGSWHGYGYWGQGTQVTVSS,polyreactivity (PSR sort gate),low polyreactivity
QVQLVESGGGLVQAGGSLRLSCAASGRTSLRYAMGWYRQAPGKERELVAAIRYGGGSTRYADSVKGRFTISRDNAKNTVYLQMNSLKPEDTAVYYCAARYFPRIQYGRKGYDYWGQGTQVTVSS,polyreactivity (PSR sort gate),low polyreactivity
QVQLVESGGGLVQAGGSLRLSCAASGFTYNRYAMGWYRQAPGKERELVAGISWGGGSTYYADSVKGRFTISRDNAKNTVYLQMNSLKPEDTAVYYCAAGWQHYRRYGSYDYWGQGTQVTVSS,polyreactivity (PSR sort gate),high polyreactivity
QLQLVETGGGLVQAGGSLRLSCAASGRIYYGYAMGWYRPAPGKERELVAAISWSGGSTYYADSVKGRFTISRDNAKNTVYLQMNSLKPEDTAVYYCARDAPYLYRAFDYWGQGTQVTVSS,polyreactivity (PSR sort gate),high polyreactivity
QVQLVESGGGLVQAGGSLRLSCAASGNIFGYYAMGWYRQAPGKERELVAAIRTRGGRTYYADSVKGRFTISRDNAKTTVYLQMNSLKPEDTAVYYGAARSIAGFWRYDYWGQGTQVTVSS,polyreactivity (PSR sort gate),high polyreactivity
QVQLVESGGGLDQAGGSLRLSCAASGGTFARYAMGWYRQAPGKERELVAAISARGGSTYYADSVKGRFTISRDNAKNTVYLQMNSLKPEDTAVYYCAAKKWYDRYGFDYWGQGTQVTVSS,polyreactivity (PSR sort gate),high polyreactivity
QVQLVESGGGLVQAGGSLRLSCAASGYIFYNAMGWYRQAPGKERELVASISRRSGSTYYADSVKGRFTISRDNAKNTVYLQMNSLKPEDTAVYYCAADRPPWETYGYDYWGQGTQVTVSS,polyreactivity (PSR sort gate),low polyreactivity
